Data set [1] has as its target T1, PtIDH1 (Phaeodactylum tricornutum, UniProt B7G620).
T1 construct: gene IDH1; hexamer also seen; C-terminal EF-hand domain
Briefly: spectrophotometric NADH formation at […] nm. In kind it is biochemical.

Data set [2] has as its target T1, PtIDH1. Put plainly: spectrophotometric NADH formation at […] nm. In kind it is biochemical. The note with it: read-out: Relative Activity (%) / PtIDH1.
Data set [3] addresses Phaeodactylum tricornutum isocitrate dehydrogenase 1, mature (without mitochondrial-targeting peptide) (Phaeodactylum tricornutum). Put plainly: SEC; Superdex 200 10/300 column calibrated with five standard proteins, 0.5 mL/min; 20 mM Tris, 300 mM NaCl, 5% glycerol, pH 7.5. (Size exclusion chromatography separates by hydrodynamic size, large species first.)
Substrate in data set [4]: NC(=O)c1ccc[n+]([C@@H]2O[C@H](COP(=O)([O-])OP(=O)(O)OC[C@H]3O[C@@H](n4cnc5c(N)ncnc54)[C@H](O)[C@@H]3O)[C@@H](O)[C@H]2O)c1
Briefly: purified protein. It is filed as biochemical, Phaeodactylum tricornutum. The following applies: 2 mM Mn2+, DL-isocitrate, 50 mM Tris pH 8.0, 25 °C, varied: cofactor.

Substrate in data set [5]: O=C(O)CC(C(=O)O)C(O)C(=O)O
Briefly: purified protein. It is filed as biochemical, Phaeodactylum tricornutum. The following applies: 2 mM Mn2+, NAD+, 50 mM Tris pH 8.0, 25 °C, varied as DL-isocitrate, cooperative, nH 1.43.

“And” between values parts separate entries of the source, which are not always exact repeats. Identical values can stand only once.

As usually defined, the Ki is the dissociation constant of the complex between target and ligand, obtained from inhibition or displacement. Low values mean tighter binding, high ones weaker binding. `NC(=O)C1=CN([C@@H]2O[C@H](COP(=O)(O)OP(=O)(O)OC[C@H]3O[C@@H](n4cnc5c(N)ncnc54)[C@H](O)[C@@H]3O)[C@@H](O)[C@H]2O)C=CC1` [NADH] registered a Ki at PtIDH1 [1] of 450 ± 80 µM.
In the case of `Nc1ncnc2c1ncn2[C@@H]1O[C@H](COP(=O)(O)OP(=O)(O)O)[C@@H](O)[C@H]1O` [ADP], at PtIDH1 [2], the activity at 1000 µM stood at 86.63 ± 0.2%.
As for `Nc1ncnc2c1ncn2[C@@H]1O[C@H](COP(=O)(O)OP(=O)(O)OP(=O)(O)O)[C@@H](O)[C@H]1O` [ATP], on PtIDH1 [2], the activity at 1000 µM was 88.7 ± 0.8%.
In general, stoichiometry N refers to the number of molecules, sites or subunits per partner or assembly. Take “Phaeodactylum tricornutum isocitrate dehydrogenase 1, mature (without mitochondrial-targeting peptide) (enzyme)”: the stoichiometry N in data set [3] is 2 and 6.

B1: PtIDH1 (Phaeodactylum tricornutum CCAP 1055/1) (protein)
chain: MLSVENKVVAPPMVYIAGEEMTRYACDLVVKSWLEPYFDLSQWEYFDLSCVNRDNTNDQVLRDAVTAGQRIGAIFKEPTITPSAIQKKAFGLKNSLGSPNGAMRAGWNGITISRDTIHIDGIELGYKRPVFFERHAVGGEYGAGWSKVGRGTLLTTYLPSDGRDPFVVDKRDLTDQHNVVVTYHNPYDNVEPLAHLFFQRCLDANITPYVVTKKTVFKWQEGFWAVMKDVFDEHYKSRFEEKGLLQACGGDLQHLISDAATMQLIRWTDGGFGMAAHNYDGDMLTDQIAQVHRSPGFITSNLVGKAPDGSLIKEFEASHGTVSDLWNDHLAGKETSLNPLGLVEAIVGALQHAAVLDAEKNPDDEHKVKARDQIFNFTTTLRTAMHNTFRYGQGTRDMSGPSGYTTEDFVRKVAWRLQRYLDAQYDEAPPPQLGEPSRKLRRNYDIDEEAINGLFQKYDKNGDGFIDFEEFTRMLVKMNLAPLLTKKEKEKKPDV
notes: hexamer also seen; C-terminal EF-hand domain
One may read the Km as the concentration of substrate that gives half-maximal velocity. One may read the kcat as the maximal rate divided by the concentration of active sites. The term kcat/Km denotes the turnover number divided by the Michaelis constant. B1: in “purified protein [4]”, the Km amounted to 1132.5 ± 23.3 µM, the kcat was 180.5 ± 6.8 s⁻¹ and the kcat/Km came out at 160000 M⁻¹ s⁻¹. In “purified protein [5]”, the K0.5 turned out to be 84.9 ± 5.2 µM.

For the origin of these results see publication PMC7460673, “Biochemical Characterization and Crystal Structure of a Novel NAD^+-Dependent Isocitrate Dehydrogenase from Phaeodactylum tricornutum” (International Journal of Molecular Sciences, 2020).
